Measured values as given in PMC11825297.

Target: GST-tagged actin-binding domain of melanophilin (GST-Mlph-ABD), ATTO-488-labeled (UniProt Q91V27)
Assay: MST; ATTO-488-labeled GST-Mlph-ABD (diluted to 40 nM in MST buffer: 50 mM Tris-HCl pH 7.8, 100 mM NaCl, 10 mM MgCl2, 0.05% Tween-20) mixed 1:1 with a 16-step two-fold dilution series of the His-tagged Myo5a tail from 40 uM in His-tag protein dialysis buffer; Monolith NT.115; three repetitions

Chain of UniProt Q91V27 (Q91V27 401-590): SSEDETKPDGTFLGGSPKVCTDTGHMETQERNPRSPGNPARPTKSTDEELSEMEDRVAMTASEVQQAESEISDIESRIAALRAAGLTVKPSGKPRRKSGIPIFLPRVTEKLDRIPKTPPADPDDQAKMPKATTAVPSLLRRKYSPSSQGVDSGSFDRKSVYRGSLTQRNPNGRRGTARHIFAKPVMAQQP

His-tagged middle tail domain of myosin-5a (His-Myo5a-MTD) (from UniProt Q99104 1-1853) (domain or fragment)
Kd: 562 nM
